# Source: PMC314469, “Protein Interaction Networks by Proteome Peptide Scanning” (PLoS Biology, 2004)
# T1: amphyphisin SH3 (AMPH_HUMAN), P49418
# T1 chain: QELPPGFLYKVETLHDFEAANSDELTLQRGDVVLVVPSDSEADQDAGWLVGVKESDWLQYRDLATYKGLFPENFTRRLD
# Legend:
# [1] = biological target: T1, amphyphisin SH3 (AMPH_HUMAN), P49418; assay: SPOT array
# [2] = biological target: endophilin SH3 (SH3G2_HUMAN), Q99962; assay: SPOT array
"normalised SPOT signal, Boehringer light units (BLU); mean over the file's lines of this peptide [1]","normalised SPOT signal, Boehringer light units (BLU); mean over the file's lines of this peptide [2]",Binder
9310,13000,PHSAPLRPPRELHA [Q9NVV2 32-45]
70.2,191,PNLLPHRPPLLVFP [Q9Y6X6 669-683]
48.7,110,PIQNIKRPYPGEVS [Q9H7J0 315-328]
230,9160,ASAPPRRPRPPPPS [Q9UEF7 3-16]
1910,3490,PLPRFPRPPRALPA [P56730 61-74]
4940,18500,PLRLPPRPPGPRLA [O95822 14-28]
1780,1220,PLLHLTRPSRLEPG [P52849 207-220]
36,66,PMEGIRRPDQALLP [O00253 27-40]
21.6,60.7,PKTYLRRPEASSPA [Q92932 113-126]
421,200,ARVPLGRPRRRPRA [O60331 5-18]
5210,1200,PMRLPRRPLRAFES [O14545 178-191]
58.1,272,PPASPRRPRSFKSK [Q9HCK6 1105-1118]
1010,464,PMAPIRRPISAESA [P53675 58-71]
16000,20000,PPARPPRPPYPPRR [AAH27972 518-532]
24.6,0,PNYDLRRPHQYLHP [O94991 899-912]
8020,15800,PLMHPARPFRVSNH [O60543 29-42]
37.6,48.9,PKSVLKRPVTSEEL [Q9HA07 306-319]
680,10400,PLLPPKRPLSSSHE [Q9H6X0 119-132]
88.3,2510,PPALPPKPPKPMTS [Q92569 33-47]
314,61.3,PKTPPRRPVPVADS [Q9HA84 52-65]
405,1570,PNATPRRPLQELRR [Q9HCF2 2-15]

"normalised SPOT signal, Boehringer light units (BLU); mean over the file's lines of this peptide [1]","normalised SPOT signal, Boehringer light units (BLU); mean over the file's lines of this peptide [2]",Binder
20500,12100,PPAPPTRPPRRSDS [P35443 278-292]
2910,487,PKISPQKPPRKDME [AAM49716 571-585]
37.6,64.2,PKKPPVKPPTEPIG [Q9ULW0 418-432]
4680,744,PLPAPRRPKVNSIL [Q9H3X8 431-444]
77.9,3470,PPALPPKPPKPTTV [AAH30815 33-47]
28.7,9.5,PLRHFKRPAYASSS [Q14123 658-671]
38.7,32.6,PKERLRRPETSGIS [O75698 245-258]
30.1,4.1,PHHELRRPVLQRQT [Q9H6E1 62-75]
91.3,155,PNIKISRPLKVLLT [Q9NPB9 231-244]
12.1,83.3,PKRGPRRPKYSPPR [Q14669 1006-1019]
81.5,1880,PKDYPLRPPKMKFI [Q99462 62-75]
131,398,PNLIPRRPSPYEKT [O95450 1177-1190]
2870,648,PMVPPRRPWTLVNW [Q9NRZ5 298-311]
201,172,PLISFPRPVKTTWL [Q9P2D6 185-198]
124,4320,PPALPPKPPKAKPA [O00459 298-312]
2100,4850,PLRPILRPRKYPNR [P11161 316-329]
21.2,435,ASAPPQRPPSGPEG [Q96LW7 145-159]
75.3,58.2,PHKRPRRPHQIADL [Q96FN8 185-198]
315,453,PPAPLRRPLAVLHA [Q96BU4 174-187]
356,3740,PPAPPLRPPGPPTG [Q9Y2W2 415-429]
46.1,90.8,PISVLRRPGANHEG [Q9Y2Z7 47-60]
